Source: patent US20140127211A1 (Pfizer, published 2014)

How the values were obtained:
[1] = target: T1, full-length mouse Notch3 expressed on the cell surface (mouse, UniProt Q61982 40-2318); test: cell-based ELISA, U-2 OS cells over-expressing mouse Notch3
T1 construct: whole, on cells; Over-expressed on U-2 OS cells; also called U2OS/mNotch3

[2] = target: T2, human Notch3 NRR recombinant protein (Notch3 NRR_Avi_His tag) (human); test: ELISA, recombinant protein, hybridoma supernatant
T2 construct: Purified from CHO-PACE cells; the entry includes the C-terminal Avi and His6 tag
T2 chain: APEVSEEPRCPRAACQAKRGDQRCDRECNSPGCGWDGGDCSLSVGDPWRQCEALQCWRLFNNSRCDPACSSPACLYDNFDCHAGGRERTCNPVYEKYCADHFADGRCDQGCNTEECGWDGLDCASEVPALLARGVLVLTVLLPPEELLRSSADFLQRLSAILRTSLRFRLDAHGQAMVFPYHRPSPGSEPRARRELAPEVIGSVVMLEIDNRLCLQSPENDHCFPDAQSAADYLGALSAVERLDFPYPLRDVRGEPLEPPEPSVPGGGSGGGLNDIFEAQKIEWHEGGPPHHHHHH

[3] = target: T1, full-length mouse Notch3 expressed on …; test: cell-based ELISA, U2OS/mNotch3 cells
Experimental: (§1) U-2 OS cells stably over-expressing human or mouse full length Notch3 protein on cell surface (hereinafter U2OS/hNotch3 and U2OS/mNotch3, respectively) were plated at 50,000 cells/well in 96 well plates (white opaque, BD/VWR) the day before ELISA assay. On the day of the ELISA, culture media was removed from wells and serially diluted (1:3 in blocking buffer) antibody solutions were applied to the plate. Plates were incubated at room temperature for 2 hours before being washed with PBS-Mg/Ca. HRP-conjugated secondary antibody was then applied and incubated with cells for 1 hour as described above for recombinant protein ELISA. Plates were washed with PBS-Mg/Ca before being developed with Pico-Chemiluminescent developing kit (Thermal Scientific), and chemiluminescence measurements were performed per manufacturer's instructions. Data plotting and analyses were performed with Microsoft Excel and Graphpad-Prism software.

[4] = target: T2, human Notch3 NRR recombinant protein …; test: SPR (Biacore T100), antibody captured on anti-human IgG-Fc, Notch3 NRR as analyte, 1:1 Langmuir fit
Experimental: The kinetic constants of the anti-Notch3 NRR interactions were determined by surface plasmon resonance (Biacore® T100, Biacore Inc., Piscataway, N.J.). Flow cells of a CM5 chip were immobilized with approximately 10,000 response units (RU) of anti-human IgG-Fc (Biacore®) in 10 mM Glycine, pH 5.0 at 10 μl/min for 600 seconds. […] Association of four concentrations of human Notch3 NRR recombinant protein (from 3.7-100 nM) and a zero concentration (running buffer) at 100 μl/min were recorded for 3 minutes in TBS with 1 mM CaCl₂. Dissociation of the complexes was measured for 10 minutes. The surface of the chip was regenerated by injecting 3M MgCl₂ with 3 mM EGTA for 60 seconds at 10 μl/min. Curves obtained after subtraction of the reference and buffer signals were fitted to a 1:1 Langmuir binding model with Biacore® T100 Evaluation Software (Biacore®).

[5] = target: T3, Notch 1-3 NRR domain swap chimera: A of Notch1; B, C, hd1, hd2 of Notch3 (row 4, unnamed on the sheet) (human); test: ELISA: NRR-Fc protein coated at 1 ug/ml, antibody applied at 5 ug/ml, goat anti-human Fc-HRP, TMB, O.D. 450 nM
T3 construct: part of the NRR
Experimental: (§2) After 1 hour of incubation, plates were washed with PBS with 0.9 mM Mg²⁺ and Ca²⁺, before secondary goat anti-human Fc antibody conjugated with HRP were applied and incubated on the plates. After washing again, the plates were developed with TMB and the developing reactions were stopped by adding 0.18M H₂SO₄.

[6] = target: T4, human Notch1 NRR-Fc (human, UniProt P46531 1446-1733, limits assumed); test: as above
T4 construct: domain: NRR region; Made in CHO-PACE cells; not shown: human IgG1 Fc fragment
T4 sequence (looked up): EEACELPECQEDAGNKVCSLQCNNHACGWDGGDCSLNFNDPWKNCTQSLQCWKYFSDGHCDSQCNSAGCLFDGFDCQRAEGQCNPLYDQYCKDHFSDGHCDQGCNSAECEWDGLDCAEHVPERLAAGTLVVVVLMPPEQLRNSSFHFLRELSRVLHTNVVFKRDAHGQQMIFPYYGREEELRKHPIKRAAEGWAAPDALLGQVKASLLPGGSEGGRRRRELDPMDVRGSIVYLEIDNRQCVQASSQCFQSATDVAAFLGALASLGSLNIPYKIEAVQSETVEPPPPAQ

[7] = target: T5, Notch 1-3 NRR domain swap chimera: hd2 of Notch1; A, B, C, hd1 of Notch3 (row 8, unnamed on the sheet) (human); test: as above
T5 construct: part of the NRR
Experimental: as §2

[8] = target: Notch3-NRR (human); test: as above
Experimental: as §2

[9] = target: T6, Notch 1-3 NRR domain swap chimera: B of Notch1; A, C, hd1, hd2 of Notch3 (row 5, unnamed on the sheet) (human); test: as above
T6 construct: part of the NRR
Experimental: as §2

[10] = target: T2, human Notch3 NRR recombinant protein …; test: ELISA, plate-coated recombinant protein
Experimental: (§3) Purified human or mouse Notch3 NRR recombinant proteins were coated on CoStar hi-bound 96-well ELISA plates in 100 μl of PBS with Mg/Ca at a concentration of 1 μg/ml overnight. The plates were washed with PBS-Mg/Ca and blocked for 1 hour with 1% BSA in PBS-Mg/Ca. Blocking solution was decanted from the plate and 1:3 serial dilutions of antibodies in blocking solutions were applied to the plate. After incubation at room temperature for 1 hour, plates were washed again with PBS-Mg/Can before HRP (horse radish peroxidase)-conjugated secondary antibody diluted (1:20,000) in blocking buffer was applied. When the primary antibody tested was rat IgG, the secondary antibody was goat anti-rat IgG Fc (Bethyl Biotech); and when the primary antibody was human IgG, the secondary antibody was goat anti-human IgG Fc (Southern Biotech).
(§4) After 1 hour incubation with the secondary antibody, plates were washed again, as described above, and TMB substrate solution was added. The developing reaction was allowed for 10 minutes before the stopping solution, 0.18M H₂SO₄, was added.

[11] = target: T7, mouse Notch3 NRR recombinant protein (Notch3 NRR_Avi_His tag) (mouse); test: ELISA, plate-coated recombinant protein
T7 construct: The entry includes the C-terminal Avi and His tag; S1-cleaved heterodimer as for the human protein
T7 chain: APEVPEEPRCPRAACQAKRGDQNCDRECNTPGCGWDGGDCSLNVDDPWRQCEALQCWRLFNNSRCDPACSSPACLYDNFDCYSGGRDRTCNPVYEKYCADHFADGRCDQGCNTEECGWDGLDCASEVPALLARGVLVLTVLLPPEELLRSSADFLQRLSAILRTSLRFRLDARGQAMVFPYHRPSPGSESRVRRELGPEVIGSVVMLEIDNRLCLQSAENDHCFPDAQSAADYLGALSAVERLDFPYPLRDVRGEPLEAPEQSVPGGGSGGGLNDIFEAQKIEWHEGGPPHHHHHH
Experimental: as §3, §4

[12] = target: T8, full-length human Notch3 expressed on the cell surface (human, UniProt Q9UM47 40-2321); test: cell-based ELISA, U2OS/hNotch3 cells
T8 construct: whole, on cells; also called hNotch3; U2OS/hNotch3
Experimental: as §1

[13] = target: T8, full-length human Notch3 expressed on …; test: competition ELISA on U2OS/hNotch3 cells; competitor 0.8 nM biotinylated ch28
Experimental: (§5) 96 well cell culture plates were seeded with U2OS/hNotch3 cells (cell culture plate, Co-star). […] After incubation for 2 hours, the plates were washed, as described above, and HRP-conjugated streptavidin (Southern Biotech) diluted 1:5000 in blocking buffer was applied. After incubation with streptavidin for 30 minutes, the plates were washed again before being developed with TMB solution for 10 minutes. […] Data plotting and analyses were performed with Microsoft Excel and Graphpad-Prism software.

[14] = target: T8, full-length human Notch3 expressed on …; test: cell-based ELISA, MDA-MB-468 cells; SD 0.062
Experimental: (§6) On the day of the ELISA, culture media was removed from wells and serially diluted (1:3 in DPBS with calcium chloride and magnesium chloride (Ca/Mg) and 1% BSA) antibody and ADC solutions were applied to the plate. Plates were incubated at room temperature for 2 hours before washed with DPBS with Ca/Mg and 1% BSA. HRP-conjugated secondary antibody was then applied and incubated with cells for 1 hour. Plates were washed with DPBS with Ca/Mg and 1% BSA before being developed with Pico-Chemiluminescent developing kit (Thermal Scientific), and chemiluminescence measurements were performed per manufacturer's instructions. Data plotting and analyses were performed with Microsoft Excel and Graphpad-Prism software.

[15] = target: T8, full-length human Notch3 expressed on …; test: cell-based or functional assay
[16] = target: T8, full-length human Notch3 expressed on …; test: cell-based ELISA, U2OS/hNotch3 cells; SD 0.041
Experimental: as §6

[17] = target: T8, full-length human Notch3 expressed on …; test: cell-based or functional assay; remark: listed apart in the source
[18] = target: T8, full-length human Notch3 expressed on …; test: cell-based ELISA, HCC2429 cells; SD 0.063
Experimental: as §6

[19] = target: T8, full-length human Notch3 expressed on …; test: cell-based ELISA, U2OS/hNotch3 cells; SD 0.160
Experimental: as §6

[20] = target: T8, full-length human Notch3 expressed on …; test: cell-based ELISA, MDA-MB-468 cells; SD 0.176
Experimental: as §6

[21] = target: T8, full-length human Notch3 expressed on …; test: competition ELISA on U2OS/hNotch3 cells; competitor 0.8 nM biotinylated ch75
Experimental: as §5

[22] = target: T8, full-length human Notch3 expressed on …; test: cell-based ELISA, HCC2429 cells; SD 0.053
Experimental: as §6

[23] = target: T8, full-length human Notch3 expressed on …; test: cell-based ELISA, MDA-MB-468 cells; SD 0.167
Experimental: as §6

[24] = target: T8, full-length human Notch3 expressed on …; test: cell-based ELISA, U2OS/hNotch3 cells; SD 0.057
Experimental: as §6

[25] = target: T8, full-length human Notch3 expressed on …; test: cell-based ELISA, HCC2429 cells; SD 0.115
Experimental: as §6

[26] = target: T8, full-length human Notch3 expressed on …; test: cell-based ELISA, HCC2429 cells; SD 0.034
Experimental: as §6

[27] = target: T8, full-length human Notch3 expressed on …; test: cell-based ELISA, U2OS/hNotch3 cells; SD 0.008
Experimental: as §6

[28] = target: T8, full-length human Notch3 expressed on …; test: cell-based ELISA, MDA-MB-468 cells; SD 0.046
Experimental: as §6

T8 sequence (Q9UM47 40-2321): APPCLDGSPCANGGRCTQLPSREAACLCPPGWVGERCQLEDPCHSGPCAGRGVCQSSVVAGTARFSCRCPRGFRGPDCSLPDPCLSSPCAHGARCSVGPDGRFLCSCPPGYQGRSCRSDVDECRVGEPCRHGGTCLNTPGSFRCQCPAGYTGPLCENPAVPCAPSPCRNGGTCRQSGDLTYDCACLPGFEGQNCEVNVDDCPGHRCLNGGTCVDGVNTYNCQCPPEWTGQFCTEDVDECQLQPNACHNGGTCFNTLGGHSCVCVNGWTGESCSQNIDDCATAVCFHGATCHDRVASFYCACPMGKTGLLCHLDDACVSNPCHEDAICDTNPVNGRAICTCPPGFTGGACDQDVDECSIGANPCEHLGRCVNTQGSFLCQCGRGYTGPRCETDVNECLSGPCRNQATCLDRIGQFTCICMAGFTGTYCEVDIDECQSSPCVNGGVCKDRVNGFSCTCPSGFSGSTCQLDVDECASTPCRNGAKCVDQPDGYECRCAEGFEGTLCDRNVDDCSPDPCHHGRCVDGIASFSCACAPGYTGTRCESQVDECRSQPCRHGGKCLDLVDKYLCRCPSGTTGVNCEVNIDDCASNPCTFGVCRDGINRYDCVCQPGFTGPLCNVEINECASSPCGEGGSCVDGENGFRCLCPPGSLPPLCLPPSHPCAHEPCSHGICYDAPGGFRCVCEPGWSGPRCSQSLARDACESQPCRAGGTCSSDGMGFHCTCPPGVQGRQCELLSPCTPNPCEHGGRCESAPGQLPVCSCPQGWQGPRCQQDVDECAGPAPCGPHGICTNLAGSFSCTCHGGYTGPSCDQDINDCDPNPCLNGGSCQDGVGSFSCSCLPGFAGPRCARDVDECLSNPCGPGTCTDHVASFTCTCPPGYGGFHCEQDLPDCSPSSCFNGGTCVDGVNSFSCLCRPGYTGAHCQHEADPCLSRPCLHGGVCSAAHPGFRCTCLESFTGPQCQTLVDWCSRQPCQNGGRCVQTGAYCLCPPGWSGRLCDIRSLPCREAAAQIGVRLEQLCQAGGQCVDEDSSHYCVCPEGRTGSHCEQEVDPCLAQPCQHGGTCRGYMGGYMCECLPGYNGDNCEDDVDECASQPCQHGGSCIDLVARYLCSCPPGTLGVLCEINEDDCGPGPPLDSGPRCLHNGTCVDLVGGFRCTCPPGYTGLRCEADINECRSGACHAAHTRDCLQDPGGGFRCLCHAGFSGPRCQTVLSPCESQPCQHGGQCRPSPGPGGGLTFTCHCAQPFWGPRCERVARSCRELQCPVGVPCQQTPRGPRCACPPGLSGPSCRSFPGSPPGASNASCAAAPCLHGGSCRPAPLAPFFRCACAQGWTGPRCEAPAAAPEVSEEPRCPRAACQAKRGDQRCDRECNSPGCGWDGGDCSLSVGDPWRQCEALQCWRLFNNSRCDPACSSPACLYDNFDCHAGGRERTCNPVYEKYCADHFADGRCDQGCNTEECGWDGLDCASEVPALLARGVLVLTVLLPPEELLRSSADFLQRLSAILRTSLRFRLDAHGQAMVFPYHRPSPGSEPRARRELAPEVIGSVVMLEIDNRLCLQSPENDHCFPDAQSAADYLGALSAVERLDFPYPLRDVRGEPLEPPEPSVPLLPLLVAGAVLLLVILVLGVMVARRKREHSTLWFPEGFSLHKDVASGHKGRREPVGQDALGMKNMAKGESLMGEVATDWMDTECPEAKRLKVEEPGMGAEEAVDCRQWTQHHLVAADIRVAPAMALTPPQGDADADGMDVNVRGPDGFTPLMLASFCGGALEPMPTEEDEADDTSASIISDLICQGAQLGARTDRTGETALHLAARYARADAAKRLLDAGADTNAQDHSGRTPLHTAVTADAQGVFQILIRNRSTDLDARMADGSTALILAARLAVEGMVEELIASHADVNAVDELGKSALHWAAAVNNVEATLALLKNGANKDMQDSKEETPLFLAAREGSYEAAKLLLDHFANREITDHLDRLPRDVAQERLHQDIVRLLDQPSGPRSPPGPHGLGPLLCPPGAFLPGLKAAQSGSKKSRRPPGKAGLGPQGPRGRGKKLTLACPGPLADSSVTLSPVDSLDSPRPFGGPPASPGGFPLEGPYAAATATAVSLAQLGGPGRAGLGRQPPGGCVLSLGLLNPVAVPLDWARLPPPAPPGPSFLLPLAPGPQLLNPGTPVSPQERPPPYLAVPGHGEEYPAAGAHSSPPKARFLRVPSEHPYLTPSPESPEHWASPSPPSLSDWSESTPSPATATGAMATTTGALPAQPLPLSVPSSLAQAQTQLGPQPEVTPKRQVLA
T1 sequence (Q61982 40-2318): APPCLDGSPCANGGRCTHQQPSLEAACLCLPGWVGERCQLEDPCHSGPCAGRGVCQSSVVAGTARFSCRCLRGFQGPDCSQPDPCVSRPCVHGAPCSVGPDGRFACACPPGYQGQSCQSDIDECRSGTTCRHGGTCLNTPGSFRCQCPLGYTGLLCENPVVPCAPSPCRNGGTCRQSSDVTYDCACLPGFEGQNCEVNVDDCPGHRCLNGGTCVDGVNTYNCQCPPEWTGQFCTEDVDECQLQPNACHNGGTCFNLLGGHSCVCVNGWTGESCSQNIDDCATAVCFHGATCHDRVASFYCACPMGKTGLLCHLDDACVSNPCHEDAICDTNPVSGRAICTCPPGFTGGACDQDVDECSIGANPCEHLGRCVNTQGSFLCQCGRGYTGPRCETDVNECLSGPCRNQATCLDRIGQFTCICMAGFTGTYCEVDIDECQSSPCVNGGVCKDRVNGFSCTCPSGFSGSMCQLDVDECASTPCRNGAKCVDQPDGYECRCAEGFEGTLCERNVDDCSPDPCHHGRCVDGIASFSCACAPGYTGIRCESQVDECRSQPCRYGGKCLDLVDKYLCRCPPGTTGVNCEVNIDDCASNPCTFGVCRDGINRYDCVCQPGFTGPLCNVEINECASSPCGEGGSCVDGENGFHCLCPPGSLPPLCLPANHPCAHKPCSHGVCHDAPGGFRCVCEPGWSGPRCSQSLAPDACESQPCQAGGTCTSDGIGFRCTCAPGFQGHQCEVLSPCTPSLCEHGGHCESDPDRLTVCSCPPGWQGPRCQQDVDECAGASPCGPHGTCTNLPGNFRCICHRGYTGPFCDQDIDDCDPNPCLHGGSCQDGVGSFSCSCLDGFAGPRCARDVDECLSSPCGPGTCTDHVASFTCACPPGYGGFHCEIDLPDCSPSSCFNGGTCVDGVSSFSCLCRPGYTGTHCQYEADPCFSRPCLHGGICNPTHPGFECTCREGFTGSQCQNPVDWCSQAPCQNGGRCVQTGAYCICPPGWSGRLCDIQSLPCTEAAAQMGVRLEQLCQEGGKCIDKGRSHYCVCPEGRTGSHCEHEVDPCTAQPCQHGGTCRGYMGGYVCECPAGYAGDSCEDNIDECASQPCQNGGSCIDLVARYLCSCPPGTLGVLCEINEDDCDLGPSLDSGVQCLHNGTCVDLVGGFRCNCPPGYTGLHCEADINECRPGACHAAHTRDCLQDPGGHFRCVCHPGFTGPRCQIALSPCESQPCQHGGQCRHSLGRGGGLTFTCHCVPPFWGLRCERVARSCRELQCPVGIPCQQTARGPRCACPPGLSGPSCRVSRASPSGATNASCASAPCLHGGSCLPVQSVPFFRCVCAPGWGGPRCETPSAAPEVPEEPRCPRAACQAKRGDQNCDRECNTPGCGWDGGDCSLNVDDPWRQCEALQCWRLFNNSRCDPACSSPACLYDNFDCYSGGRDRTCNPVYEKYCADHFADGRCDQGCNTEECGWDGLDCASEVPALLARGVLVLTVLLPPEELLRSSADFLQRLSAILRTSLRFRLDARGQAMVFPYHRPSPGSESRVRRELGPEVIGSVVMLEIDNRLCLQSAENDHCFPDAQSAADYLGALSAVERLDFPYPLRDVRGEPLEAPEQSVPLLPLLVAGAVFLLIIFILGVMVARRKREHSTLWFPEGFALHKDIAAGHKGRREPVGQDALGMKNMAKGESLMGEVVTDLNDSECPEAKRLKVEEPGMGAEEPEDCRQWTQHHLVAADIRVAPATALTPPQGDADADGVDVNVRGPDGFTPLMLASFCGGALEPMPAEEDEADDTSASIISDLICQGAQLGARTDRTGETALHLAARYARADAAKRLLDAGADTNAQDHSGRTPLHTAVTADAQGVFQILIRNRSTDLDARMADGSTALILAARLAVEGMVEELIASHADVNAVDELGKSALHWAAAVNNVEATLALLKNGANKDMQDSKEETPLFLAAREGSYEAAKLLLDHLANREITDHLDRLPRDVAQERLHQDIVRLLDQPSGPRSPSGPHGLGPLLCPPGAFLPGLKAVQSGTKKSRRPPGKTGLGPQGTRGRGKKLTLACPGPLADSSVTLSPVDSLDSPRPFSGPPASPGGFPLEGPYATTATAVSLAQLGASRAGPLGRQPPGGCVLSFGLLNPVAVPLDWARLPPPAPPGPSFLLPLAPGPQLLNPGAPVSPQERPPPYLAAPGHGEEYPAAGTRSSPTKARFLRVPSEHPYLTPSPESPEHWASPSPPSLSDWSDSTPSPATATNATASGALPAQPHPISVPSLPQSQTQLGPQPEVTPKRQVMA

B1: parental rat clone 75 (r75) (antibody, V domains shown)
VH: QVKLLQSGAALVKPGASVKMSCKASGYAFTDYWVTWVKQSHGKSLEWIGEISPNSGGTNFNEKFKGKATLTVDKSTSTAYMELSRLTSEDSAIYYCTRGEIRYNWFAYWGQGTLVTVSS
VL: NIVMTQSPKSMSISVGDRVTMNCKASQNVGNNIAWYQQKPGQSPKLLIYYASNRYTGVPDRFTGGGYGTDFTLTINSMQAEDAAFYYCQRLYNSPFTFGSGTKLEIK
notes: Rat monoclonal antibody from hybridoma, tested as hybridoma supernatant
binding result [1]: no binding | O.D. 450 nM [2]: ≥ 1 O.D. 450 nM

B2: rat-human chimeric antibody 28 (ch28) (antibody, V domains shown)
VH: EVQLVESGGGLVQPGRSLTLSCVASGFTFRDYGMTWIRQAPGKGLTWVAYISSGSNYIYYAEAVKGRFTISRDNAKNTLYLQMTSLRSEDTALYFCTRRGPFVLDAWGQGASVTVSS
VL: DIQMTQSPSFLSASVGDRVTINCKASQSINRYLHWFQQKLGEAPKLLIYNANGLQTGIPSRFSGSGSGTDFTLTISSLQSEDVATYFCLQHNTWPDTFGAGTKLELK
notes: also called ch28-hIgG1; ch28-hulgG1
EC50 [3]: 0.13 nM | Kd [4]: 0.61 nM | koff [4]: 0.000249 s⁻¹ | kon [4]: 409000 M⁻¹ s⁻¹ | O.D. 450 nM (ELISA, relative binding capacity) [5]: 0.15 | binding result [6]: no binding (tested: 5 ug/ml) | O.D. 450 nM (ELISA, relative binding capacity) [7]: 0.5 | O.D. 450 nM (ELISA, relative binding capacity) [8]: 2.06 | O.D. 450 nM (ELISA, relative binding capacity) [9]: 0.54 | EC50 [10]: ≤ 1 nM | EC50 [11]: ≤ 1 nM | EC50 [12]: 0.098 nM | EC50 [13]: 3 nM

B3: hu75-vc6780 (Notch3-75-v1913-hG1-(C)_mcValCitPABC-#112) (antibody, human IgG1, kappa, V domains shown)
VH: EVQLVESGGGLVQPGGSLRLSCAASGYAFTDYWMTWVRQAPGKGLEWVAEISPNSGGTNFNEKFKGRFTISVDNAKNSLYLQMNSLRAEDTAVYYCARGEIRYNWFAYWGQGTLVTVSS
VL: DIQMTQSPSSLSASVGDRVTITCKASQNVGNNIAWYQQKPGKAPKLLIYYASNRYTGVPSRFSGSGYGTDFTLTISSLQPEDFATYYCQRLYNSPFTFGGGTKVEIKR
modifications: vc6780 linker-payload on cysteine residues after partial reduction; sites not specified
notes: Antibody-drug conjugate of hu75
EC50 [14]: 1.8 nM | IC50 of cytotoxicity, MDA-MB-468/hNotch3 cells, Notch3 siRNA (reduced Notch3 expression) [15]: 7980 ng Ab/mL | IC50 of cytotoxicity, MDA-MB-468/hNotch3 cells, control siRNA [15]: 17 ng Ab/mL | EC50 [16]: 0.723 nM | IC50 of cytotoxicity (MTS viability), HCC2429 cells, repeat 1 [17]: 214 ng Ab/mL | IC50 of cytotoxicity (MTS viability), HCC2429 cells, repeat 2 [17]: 630 ng Ab/mL | IC50 of cytotoxicity (MTS viability), MDA-MB-468/hNotch3 cells, repeat 1 [17]: 26 ng Ab/mL | IC50 of cytotoxicity (MTS viability), MDA-MB-468/hNotch3 cells, repeat 2 [17]: 25 ng Ab/mL | IC50 of cytotoxicity (MTS viability), OVCAR3 cells [17]: 254 ng Ab/mL | EC50 [18]: 0.343 nM

B4: hu75 (humanized r75 variant VH1.9/VL1.3) (antibody, human IgG1, kappa, V domains shown)
VH: B3 VH
VL: B3 VL
notes: Human IgG1/kappa; also called hu75 VH1.9/VL1.3; hu75 VH1.9/V1.3
EC50 [19]: 0.585 nM | EC50 [20]: 1.28 nM | Kd [4]: 9.76 nM | EC50 [21]: 1.7 nM | EC50 [22]: 0.335 nM | EC50 [12]: 0.22 nM

B5: hu75-vc0101 (Notch3-75-v1913-hG1-(C)_mcValCitPABC-#54) (antibody, human IgG1, kappa, V domains shown)
VH: B3 VH
VL: B3 VL
modifications: vc0101 linker-payload on cysteine residues after partial reduction; sites not specified
notes: as for B3
IC50 of cytotoxicity, MDA-MB-468/hNotch3 cells, Notch3 siRNA (reduced Notch3 expression) [15]: 3190 ng Ab/mL | IC50 of cytotoxicity, MDA-MB-468/hNotch3 cells, control siRNA [15]: 29 ng Ab/mL | EC50 [23]: 2.02 nM | EC50 [24]: 0.798 nM | EC50 [25]: 0.427 nM | IC50 of cytotoxicity (MTS viability), HCC2429 cells, repeat 1 [17]: 611 ng Ab/mL | IC50 of cytotoxicity (MTS viability), HCC2429 cells, repeat 2 [17]: 3300 ng Ab/mL | IC50 of cytotoxicity (MTS viability), MDA-MB-468/hNotch3 cells, repeat 1 [17]: 37 ng Ab/mL | IC50 of cytotoxicity (MTS viability), MDA-MB-468/hNotch3 cells, repeat 2 [17]: 36 ng Ab/mL | IC50 of cytotoxicity (MTS viability), MDA-MB-468 cells [17]: 7000 ng Ab/mL | IC50 of cytotoxicity (MTS viability), OVCAR3 cells [17]: 515 ng Ab/mL | IC50 of cytotoxicity (MTS viability), U2OS/hNotch3 cells [17]: 523 ng Ab/mL

B6: hu28-vc6780 (Notch3-28-v1010-hG1-(C)_mcValCitPABC-#112) (antibody, human IgG1, kappa, V domains shown)
VH: EVQLVESGGGLVQPGGSLRLSCAASGFTFRDYGMTWVRQAPGKGLEWVAYISSGSNYIYYAEAVKGRFTISRDNAKNSLYLQMNSLRAEDTAVYYCARRGPFVLDAWGQGTLVTVSS
VL: DIQMTQSPSSLSASVGDRVTITCKASQSINRYLHWYQQKPGKAPKLLIYNANGLQTGVPSRFSGSGSGTDFTLTISSLQPEDFATYYCLQHNTWPDTFGGGTKVEIKR
modifications: vc6780 linker-payload on cysteine residues after partial reduction; sites not specified
notes: Antibody-drug conjugate of hu28
EC50 [26]: 0.154 nM | IC50 of cytotoxicity, MDA-MB-468/hNotch3 cells, control siRNA [15]: 2 ng Ab/mL | EC50 [27]: 0.236 nM | IC50 of cytotoxicity (MTS viability), HCC2429 cells, repeat 1 [17]: 148 ng Ab/mL | IC50 of cytotoxicity (MTS viability), HCC2429 cells, repeat 2 [17]: 2050 ng Ab/mL | IC50 of cytotoxicity (MTS viability), MDA-MB-468/hNotch3 cells, repeat 1 [17]: 1.3 ng Ab/mL | IC50 of cytotoxicity (MTS viability), MDA-MB-468/hNotch3 cells, repeat 2 [17]: 3 ng Ab/mL | IC50 of cytotoxicity (MTS viability), OVCAR3 cells [17]: 17 ng Ab/mL | EC50 [28]: 0.242 nM
